Measured values taken from US20240262910A1 (Memorial Sloan Kettering, published 2024).
Positions count from the first letter of the chain named.

B1: TDI-Y-006 (antibody, V domains shown)
VH: EVQLLESGGGLVQPGGSLRLSCAASGFTFSTYAMSWVRQAPGKGLEWVSAISGRGGSTYYTDSVKGRFTISRDNSKNTVSLQMNSLRAEDTAVYYCAGRGDYYYYYGMDVWGQGTTVTVSA
VL: DIVMTQSPLSSPVTLGQPASFSCRSSQSLVYSDGNTYLSWLQQRPGQPPRLLIYKISNRFSGVPDRFSGSGAGTDFTLKISRVEAEDVGVYYCMQSTQFPHTFGQGTKLEIK
notes: also called 3P14 (recombinant, human IgG1 constant region)
B2: 3-P14 (hybridoma antibody) (antibody, V domains shown)
VH: B1 VH
VL: B1 VL
notes: AlivaMab mouse hybridoma antibody; also called 3-P14-A
B3: 4-P3 (antibody, V domains shown)
VH: B1 VH
VL: B1 VL with F21I
notes: AlivaMab mouse hybridoma antibody; also called 4-P3-A
B4: 4-B2 (hybridoma antibody) (antibody, V domains shown)
VH: EVHLLESGGGLVQPGGSLRLSCAASGFIFSSNAMSWVRQAPGKGLEWVSAISGYGGNTYYADSVKGRFTISRDNSKNTLYLQMNSLRAEDTAVYYCAKWGTYIVGATGDYWGQGTLVTVSS
VL: QSALTQPPSASGSPGQSVTISCTGTSNDVGGYNYVSWYQQHPGKAPKLLIYEVSKRPSGVPDRFSGSQSGNTASLTVSGLQAEDEADYYCSSYAGSNNWVFGGGTKLTVL
notes: AlivaMab mouse hybridoma antibody; also called 4-B2-A
B5: 1J19 (recombinant, human IgG1 constant region) (antibody, V domains shown)
VH: QVQLQQSGPGLVKPSQTLSLTCAISGDSVSSNSAAWNWIRQSPSRGLEWLGRTYFRSKWYNVYAVSVKSRITINPDTSKNQFSLQLNSVTPEDTAVYYCASEGGSYYDHWGQGTLVTVSS
VL: DIQMTQSPSSVSASVGDRVTITCRASQGISNWLTWYQQKPGKAPKLLIYAASSLQSGVPSRFSGSGSGTDFTLTISSLQPEDFATYYCQQADSFPFTFGPGTKVDIK
B6: 1-P23 (antibody, V domains shown)
VH: QVQLVESGGGVVQPGRSLRLSCAASGFTFNSYGMHWVRQAPGKGLEWVAIISYDGSNKYYADSVKGRFTISRDNSKNTLYLQMNSLRAEDTAVYYCARDNYDSSGYNWYFDLWGRGTLVTVSS
VL: SSELTQDPAVSVALGQTVRITCQGDSLRSYYASWYQQKPGQAPVLVIYGKNNRPSGIPDRFSGSSSGNTASLTITGAQAEDEADYYCNSRDSSGNLWVFGGGTKLTVL
notes: AlivaMab mouse hybridoma antibody; also called 1-P23-A
B7: 2-N3 (antibody, V domains shown)
VH: EVQLVQSGADVKKPGESLKISCKGSGFSFTSHWIAWVRQMPGKGLEWMGIIYPGDSDTRYSPSLQGRVTISADKSISTAYLQWSSLKASDTAMYFCARHETGNGYSYGMDVWGQGTTVTVSS
VL: DIVMTQSPLSLPVTPGEPASISCRSSQSLLHSNGYNYLDWYLQKPGQSPQLLFSLGSNRASGVPDRFSGSGSGTDFSLKISRVEAEDVGLYYCMQALQPPLTFGGGTKVEIK
notes: AlivaMab mouse hybridoma antibody; also called 2-N3-A

Columns and labels:
[1] = target: T1, human CD33 extracellular domain with 6xHis-tag (human, UniProt P20138 18-259); assay: BLI, huCD33-His on anti-penta-His sensor, no competitor
T1 construct: Bought (R&D Systems, Acro Biosystems); also called huCD33-His; huCD33(ECD)-His
Protocol: Epitope Binning. Epitope binning was carried out by a BLI competition experiment using an Octet Red96e. Human CD33-His was captured by an anti-penta-His biosensor. A 4×4 matrix with TDI-Y-006, TDI-Y-007, 1J19 and H195 was tested. A reference biosensor was used to determine the overall capture level for each antibody. After pre-binding the antibodies at saturation levels, the biosensors were dipped into antibody solutions to assess competition. […] However, when TDI-Y-006 was pre-bound, binding of TDI-Y-007 was blocked. […] Similarly, 1J19 and H195 have epitopes that partially overlap. No competition was observed between antibodies binding to the membrane-proximal IgC2 domain (TDI-Y-006 and TDI-Y-007) and antibodies binding to the membrane-distal IgV domain (1J19 and H195).

[2] = target: T2, mouse CD33 extracellular domain with 6xHis-tag (mouse, UniProt Q63994 18-240); assay: ELISA: CD33-His protein at 5 µg/mL captured on Ni-NTA plate, antibody at 10 µg/mL in triplicate, HRP anti-human Fc detection, OD450
T2 construct: range 18-240; also called moCD33-His; moCD33(ECD)-His
T2 sequence: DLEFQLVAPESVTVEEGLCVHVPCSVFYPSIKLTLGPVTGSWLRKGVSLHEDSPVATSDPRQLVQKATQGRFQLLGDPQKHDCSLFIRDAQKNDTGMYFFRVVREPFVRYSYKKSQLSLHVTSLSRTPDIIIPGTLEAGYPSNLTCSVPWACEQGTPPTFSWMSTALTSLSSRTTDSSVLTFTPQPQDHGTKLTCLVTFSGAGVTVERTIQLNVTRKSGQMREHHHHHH
Protocol: Binding to Recombinant CD33 Protein. Binding to CD33 protein was carried out by ELISA using human CD33-His (full-length or IgC2 domain), cynomolgus monkey CD33-His and mouse CD33-His. Recombinant proteins at 5 μg/mL were captured by pre-blocked Ni-NTA plates. Candidate antibodies were added at 10 μg/mL in triplicate and detected using horseradish peroxidase (HRP)-conjugated anti-human Fc antibody. […] No binding was detected to cynomolgus or mouse CD33 for either TDI-Y-006 and TDI-Y-007. 1J19 and H195 only bound to full-length human CD33 ECD but not to IgC2 as these antibodies target the IgV domain.

[3] = target: T1, human CD33 extracellular domain with …; assay: summary table; binding affinity to soluble CD33 (BLI)
Protocol: (§1) The binding affinity to human CD33 protein was measured by biolayer interferometry (BLI) using an Octet Red96e. All experiments were carried out using kinetic buffer (PBS pH 7.4, 0.01% BSA, 0.002% Tween-20). The antibodies were captured by an anti-huFc biosensor and a 7-point, 2-fold dilution series of huCD33-His was used as analyte. The data was processed by double reference subtraction, and response curves were globally fit to a 1:1 Langmuir binding model. […] The binding affinities are similar to the H195 reference antibody.

[4] = target: T3, human CD33, full length, on cells (human, UniProt P20138 18-364); assay: flow cytometry on 3T3 cells overexpressing human CD33, antibody titration, AlexaFluor 647 goat anti-human F(ab')2 detection, MFI ratio to secondary only
T3 construct: NIH-3T3 cells stably overexpressing full-length human CD33, or AML lines U937 and Set2 with endogenous CD33; the cell line is named under assay; also called 3T3-huCD33; 3T3-CD33
Protocol: (§2) Binding to CD33 on Cells. To assess the binding of TDI-Y-006, TDI-Y-007 and 1J19 to cell surface-bound CD33, 3T3 cells overexpressing CD33, as well as the U937 AML cell line, which expresses endogenous CD33, were used. U937 CD33KO or NALM6 were included as negative controls. Briefly, NALM6, U937 CD33+ and KO cells were blocked with human IgG Fc for 20 minutes on ice. The recombinant antibodies were then serially diluted starting at 100 μg/mL concentration and added for 30 minutes on ice. AlexaFluor 647-conjugated goat anti-human F(ab′)2 was added to cells for 30 minutes on ice, washed and analyzed by flow cytometry, normalized to secondary only staining (MFI ratio). EC50 values were determined by non-linear regression.

[5] = target: T1, human CD33 extracellular domain with …; assay: BLI (Octet Red96e), antibody on anti-huFc sensor, huCD33-His as analyte, 1:1 fit
Protocol: as §1

[6] = target: T3, human CD33, full length, on cells; assay: summary table; flow cytometry, AML cell line U937; U937 AML cell line (endogenous CD33)
Protocol: as §2

[7] = target: T3, human CD33, full length, on cells; assay: flow cytometry, 3T3-CD33 cells
Protocol: as §2

[8] = target: T3, human CD33, full length, on cells; assay: summary table; flow cytometry, 3T3 cells overexpressing CD33
Protocol: as §2

[9] = target: T3, human CD33, full length, on cells; assay: flow cytometry, U937 cells
Protocol: as §2

[10] = target: T1, human CD33 extracellular domain with …; assay: ELISA, hybridoma supernatant
[11] = target: T4, human CD33 IgC2 type domain with 6xHis-tag (human, UniProt P20138 140-259); assay: ELISA, hybridoma supernatant
T4 construct: Produced at LakePharma; also called huCD33IgC2-His; CD33 IgC2-6xHis

[12] = target: T3, human CD33, full length, on cells; assay: flow cytometry, hybridoma supernatant, 3T3-huCD33 cells
[13] = target: T3, human CD33, full length, on cells; assay: flow cytometry, hybridoma supernatant, U937 cells
[14] = target: T3, human CD33, full length, on cells; assay: flow cytometry, purified mAb, Set2 cells
[15] = target: T5, human CD33 IgC2 domain only, on NIH-3T3 cells (human, UniProt P20138 140-364); assay: flow cytometry, hybridoma supernatant, 3T3-huCD33IgC2 cells
T5 construct: the whole entry is named here; also called 3T3-huCD33IgC2; 3T3 CD33-IgC2

[16] = target: T3, human CD33, full length, on cells; assay: flow cytometry, purified mAb, U937 cells
[17] = target: T2, mouse CD33 extracellular domain with …; assay: ELISA on recombinant moCD33-His, purified hybridoma subclone antibody, readout RLU; antibody concentration not given
[18] = target: T4, human CD33 IgC2 type domain with …; assay: ELISA, hybridoma supernatant, RLU
[19] = target: T5, human CD33 IgC2 domain only, on NIH-3T3 …; assay: flow cytometry, hybridoma supernatant, 3T3-huCD33IgC2 cells, MFI

T4 sequence (P20138 other isoform, or with tags, fused parts or gaps): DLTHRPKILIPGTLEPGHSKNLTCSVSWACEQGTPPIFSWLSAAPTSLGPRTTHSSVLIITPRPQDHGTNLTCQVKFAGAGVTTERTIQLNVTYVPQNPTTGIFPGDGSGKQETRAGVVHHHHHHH
T1 sequence (P20138 other isoform, or with tags, fused parts or gaps): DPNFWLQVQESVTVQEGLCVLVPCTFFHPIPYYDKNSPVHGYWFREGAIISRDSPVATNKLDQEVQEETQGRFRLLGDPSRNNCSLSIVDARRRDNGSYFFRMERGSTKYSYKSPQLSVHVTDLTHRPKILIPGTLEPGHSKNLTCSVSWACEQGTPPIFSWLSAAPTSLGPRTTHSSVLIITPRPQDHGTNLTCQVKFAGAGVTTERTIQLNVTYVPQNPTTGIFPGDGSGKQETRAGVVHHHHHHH
T5 sequence (P20138 140-364 limits assumed): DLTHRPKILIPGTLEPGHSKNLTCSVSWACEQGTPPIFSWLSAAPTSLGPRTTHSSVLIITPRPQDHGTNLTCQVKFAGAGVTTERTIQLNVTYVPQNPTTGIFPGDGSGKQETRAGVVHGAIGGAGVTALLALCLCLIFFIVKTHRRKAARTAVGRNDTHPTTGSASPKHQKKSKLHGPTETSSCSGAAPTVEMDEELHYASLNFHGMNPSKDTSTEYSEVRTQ
T3 sequence (P20138 18-364): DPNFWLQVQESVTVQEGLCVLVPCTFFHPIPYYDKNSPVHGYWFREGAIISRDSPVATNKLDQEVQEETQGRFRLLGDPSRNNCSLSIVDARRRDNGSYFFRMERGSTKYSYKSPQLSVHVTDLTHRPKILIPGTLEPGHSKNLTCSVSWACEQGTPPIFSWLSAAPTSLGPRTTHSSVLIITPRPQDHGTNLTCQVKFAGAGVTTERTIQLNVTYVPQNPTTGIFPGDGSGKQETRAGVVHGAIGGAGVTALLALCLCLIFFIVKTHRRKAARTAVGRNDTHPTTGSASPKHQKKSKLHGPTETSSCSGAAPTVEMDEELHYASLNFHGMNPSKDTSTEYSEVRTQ

Binder | RLU [10] [RLU] | MFI [12] [MFI] | MFI [13] [MFI] | EC50 [14] [nM] | MFI [15] [MFI] | EC50 [16] [nM] | binding result [17] | further results
B1 |  |  |  |  |  |  |  | BLI total binding capacity (Reference Biosensor) [1]: 0.86; binding result [2]: no binding (tested: 10 µg/mL); Kd [3]: 1.2 nM; koff [3]: 0.000359 s⁻¹; kon [3]: 296000 M⁻¹ s⁻¹; EC50 (read off the curve) [4]: ~8 nM; Kd [5]: 1.21 nM; kon [5]: 296000 M⁻¹ s⁻¹; EC50 [6]: 8.5 nM; EC50 [7]: 5 nM; EC50 [8]: 5 nM; EC50 [9]: 8.5 nM
B2 | 546000 | 3.06e+06 | 248000 | 2.4 | 544000 | 3.27 |  | RLU [11]: 107000 RLU
B3 | 484000 | 1.32e+06 | 188000 | 2 | 391000 | 2.5 | no binding | 
B4 | 392000 | 2.82e+06 | 152000 | 28.5 | 358000 | 40.5 | no binding | RLU [11]: 101000 RLU
B5 |  |  |  |  |  |  |  | BLI total binding capacity (Reference Biosensor) [1]: 0.432; EC50 (read off the curve) [4]: ~4 nM; Kd [5]: 1.1 nM; kon [5]: 266000 M⁻¹ s⁻¹; EC50 [7]: 6.54 nM; EC50 [9]: 2.16 nM
B6 | 41800 | 4.08e+06 | 456000 | 1.4 |  | 1.07 | no binding | binding result [18]: no binding; binding result [19]: no binding (tested: A signal >100,000 was used as cut off)
B7 | 724000 | 4.21e+06 | 409000 | 0.466 |  | 0.4 | no binding | binding result [18]: no binding; binding result [19]: no binding (tested: A signal >100,000 was used as cut off)
